Our source for the Fold diff values is US20220332804A1 (CSL INNOVATION, published 2022).

What all share (experiment): SPR, KD relative to WT C2;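 note: biacore SPR at 37 °C, anti-C2 mAbs captured via immobilised goat anti-human IgG, C2 alanine or serine surface mutants as analytes, 1:1 model fitted, double-referenced sensograms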
Background: Surface plasmon resonance follows binding to a sensor surface in real time, without labels.

For one experiment, the target named is T1, human C2 P723A (human, UniProt P06681 21-752).
T1 sequence: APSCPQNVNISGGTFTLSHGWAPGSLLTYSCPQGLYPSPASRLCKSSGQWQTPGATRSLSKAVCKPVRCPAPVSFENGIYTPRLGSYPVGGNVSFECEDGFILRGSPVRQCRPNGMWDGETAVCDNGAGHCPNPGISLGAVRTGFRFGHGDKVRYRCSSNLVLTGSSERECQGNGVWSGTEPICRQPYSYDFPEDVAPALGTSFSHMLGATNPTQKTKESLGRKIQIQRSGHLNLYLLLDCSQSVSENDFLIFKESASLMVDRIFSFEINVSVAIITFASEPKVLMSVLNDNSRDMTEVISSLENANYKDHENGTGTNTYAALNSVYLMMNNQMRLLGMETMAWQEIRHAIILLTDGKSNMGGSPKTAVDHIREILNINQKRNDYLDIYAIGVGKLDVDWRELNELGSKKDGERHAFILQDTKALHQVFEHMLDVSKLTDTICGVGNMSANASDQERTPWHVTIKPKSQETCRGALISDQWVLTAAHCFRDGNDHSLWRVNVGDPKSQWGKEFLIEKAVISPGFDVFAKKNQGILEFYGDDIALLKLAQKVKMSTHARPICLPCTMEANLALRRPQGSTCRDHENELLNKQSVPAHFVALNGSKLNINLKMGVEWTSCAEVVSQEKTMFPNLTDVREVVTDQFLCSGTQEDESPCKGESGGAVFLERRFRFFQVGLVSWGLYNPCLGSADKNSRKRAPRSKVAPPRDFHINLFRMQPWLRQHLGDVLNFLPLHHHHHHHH

A further experiment deals with T2, human C2 S469A (human, UniProt P06681 21-752).
T2 sequence: T1 sequence with S449A, A703P

For a further experiment, the target named is T3, human C2 K485A (human, UniProt P06681 21-752).
T3 sequence: T1 sequence with K465A, A703P

The target in another experiment is T4, human C2 Y558A (human, UniProt P06681 21-752).
T4 sequence: T1 sequence with Y538A, A703P

Where a chain is given by its changes, count along the chain named.

B1: RF16-226 (antibody, human IgG4 S228P, lambda)
heavy: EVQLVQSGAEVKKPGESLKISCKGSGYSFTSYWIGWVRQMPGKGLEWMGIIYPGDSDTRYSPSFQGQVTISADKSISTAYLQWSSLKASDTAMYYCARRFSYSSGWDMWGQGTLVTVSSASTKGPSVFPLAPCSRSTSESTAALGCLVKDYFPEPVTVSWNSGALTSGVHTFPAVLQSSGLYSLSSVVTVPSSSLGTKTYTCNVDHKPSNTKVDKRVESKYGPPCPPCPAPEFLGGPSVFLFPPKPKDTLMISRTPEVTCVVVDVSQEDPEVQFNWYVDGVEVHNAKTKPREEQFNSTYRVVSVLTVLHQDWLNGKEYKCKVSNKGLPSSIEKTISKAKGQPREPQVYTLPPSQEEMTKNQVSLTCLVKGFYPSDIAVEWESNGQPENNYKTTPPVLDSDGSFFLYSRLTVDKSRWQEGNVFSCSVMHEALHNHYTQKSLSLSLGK
light: SYELTQPPSVSVSPGQTARITCSGDALTSKYVAWYQQKSGLAPLLVIYEDTRRPSGIPAKFSGSSSGSVATLTISGAHGDDEADYYCYSTDASGHQRVFGGGTKLTVLSQPKAAPSVTLFPPSSEELQANKATLVCLISDFYPGAVTVAWKADGSPVKAGVETTKPSKQSNNKYAASSYLSLTPEQWKSHRSYSCQVTHEGSTVEKTVAPTECS
notes: pH-dependent anti-C2 antibody from a phage display library; also called WT
In the case of B1, the Fold diff was found to be 12 fold with human C2 P723A, 3 fold in the experiment with human C2 S469A, 1 fold in the experiment with human C2 K485A and 16 fold in the experiment with human C2 Y558A.
